From patent publication US20240400717A1 (NATIONAL CHENG KUNG UNIVERSITY, published 2024)

How the values were obtained:
mouse rCHI3L1 = molecular target: T1, mouse rCHI3L1 (mouse, UniProt Q61362 30-389, limits assumed); test: phage ELISA (3rd round single clone screening): coated protein, rescued phage supernatant, anti-M13-HRP, OD450
T1 construct: also called mouse CHI3L1; murine CHI3L1

recombinant human CHI3L1 = molecular target: T2, recombinant human CHI3L1 (human, UniProt P36222 22-383); test: as above
T2 construct: also called rCHI3L1; human rCHI3L1
T2 sequence (P36222 22-383 limits assumed): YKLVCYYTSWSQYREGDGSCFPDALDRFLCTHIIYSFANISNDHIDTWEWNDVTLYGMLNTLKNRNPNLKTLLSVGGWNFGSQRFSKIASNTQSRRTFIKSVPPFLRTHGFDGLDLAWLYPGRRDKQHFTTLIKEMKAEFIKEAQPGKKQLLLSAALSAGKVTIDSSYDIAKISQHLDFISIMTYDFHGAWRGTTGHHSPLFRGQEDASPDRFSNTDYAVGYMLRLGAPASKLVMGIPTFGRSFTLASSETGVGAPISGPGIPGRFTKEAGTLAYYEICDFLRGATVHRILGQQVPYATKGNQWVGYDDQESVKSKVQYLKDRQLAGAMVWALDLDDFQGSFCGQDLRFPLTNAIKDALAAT

T1 sequence (Q61362 30-389 limits assumed): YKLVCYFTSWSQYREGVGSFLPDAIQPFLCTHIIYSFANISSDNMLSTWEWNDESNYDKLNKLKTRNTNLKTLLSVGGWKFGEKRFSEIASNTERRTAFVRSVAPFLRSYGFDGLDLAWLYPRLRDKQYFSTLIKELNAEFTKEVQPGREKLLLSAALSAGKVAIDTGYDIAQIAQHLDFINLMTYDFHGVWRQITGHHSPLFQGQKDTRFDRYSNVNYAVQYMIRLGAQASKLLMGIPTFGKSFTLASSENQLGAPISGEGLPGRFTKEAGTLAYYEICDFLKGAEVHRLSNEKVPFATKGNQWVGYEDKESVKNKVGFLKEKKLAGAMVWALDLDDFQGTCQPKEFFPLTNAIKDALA

binding result (mouse rCHI3L1): no binding
binding result (recombinant human CHI3L1): binds
B1: anti-CHI3L1 clone 293R3-5 (antibody, human IgG1, V domains shown)
VH: EVQLVQSGAGVKKPGATVKISCKVSGYTFTDYYMHWVQQAPGKGLEWMGLVDPEDGETIYAEKFQGRVTITADTSTDTAYMELSSLRSEDTAVYYCATASPREEMPYYFDYWGQGTLVTVSS
VL: SYELTQPPSVSVSPGQTASITCSGDILADQYASWYQQKPGQSPVLVIYHDTKRPSGVPERFSGSTSGNTATLTISGTQAMDEAAYYCQAWDINTAWVFGGGTQLTVLG
notes: also called #hu 293R3-5
